Data on 33 sequences can be found in the NTF2 design screens of Basanta et al. (2020).

The data set is described as follows: protease stability score; higher = more stable; yeast display proteolysis, trypsin and chymotrypsin.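 Further: relative to predicted unfolded state with 0 unfolded-like and 1 meaning tenfold more protease.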
Consider “SDLEEEINRFLTELLRDWETGNWKAFADLLDPHTRVLIDGKEHHGREIFLEHNHQLGIKHREFELKKFRIFENRVEFDGTLHLVYGDKRVHREIHIIILKIDGRWKITEIRFL”, for which the protease stability score is 1.54.

Sequence “SDLEERSKSALHHLEEVLRTGDEDESRLMLDPNVRSVYDGREFHGRELVTELLSAFLKHLRIRDVKVERVEMNENEVRWDMKIDGTVGDKRYETHVHIIVVKVNGRWFLKEVRFG” displayed a protease stability score of 1.39.

In the case of “SDLEEVIRKHIEELEESRRTGDEESLWRLLDPNTLKVVGDKRIHGMEAVAEIETFHDRRVKNATDRLNLREVHTQGDKLTIRGELILDWDGVKINVHVRLEILKFDGRWIIHRIEVK”, the protease stability score is 0.715.

For the sequence “SDLEKETEELTRLFLENLVTGDEKTARELIDPHAMTDIGDFHIHGRDRTFRHIEELWRHWGVDRIRIHHDHIDIQGNKSYIEGTIHINGQSRKVHLIIIVFNGRIDKVRMHIR”, the protease stability score was 1.36.

Regarding “SDLEKLAEHTAKEIIHYWLTGDWKSLTELADPHVKLDIDINGRREHHHGWERVIEFFDRFRKRIDHHHIHIDSIDIQGDKVHIDGKLHVHQGDKDLTIKMTIIVIVVDGRIKSLRVIIL”, the protease stability score is 2.13.

“SDLEMEMKRWMELWLRMFVTGDFRTFLHLADPEYKVSAEGVSSHGRDFHIKELLRWLKEIRIHDFHVKDMDVQGDKAHSDGRHNGIVDGRNRDVNVHNEIVTIDGRLRSVTIRLE”: the protease stability score is 0.534.

In turn, “SDLERDAREAFEHYVNLMRTGNEHIVEHLIDPDVKIEIGDKQVVGREEVLKLFHHLVKHLRWHDTKLHHVHYQGDKMLLDMRLDGTIDGRRLDTRVIWFILKIDGVWFIKYQHYH” returned a protease stability score of 1.81.

“SDLERHISEVFKDIIEMEETGDEEELDKLADPNVRIDIDGVELIGRESLRRWVESVVDQIKGIKKHIVIRHLRVFNGRADSDGELRIHINGKTIVRKVRIHITVVNGRLKEMQFRTE”: the protease stability score is 1.19.

Sequence “SDLHHIVDNLLQEWLHARLTGDEDRLLELMDPDAREDVNGRTLVGREDSWKIMLELRFRVEHWHIHRLEIQGDKIDMDIEFDVRFDVDGVPYRLRTRQKIHIDVYNGKIQRLQVHIL” showed a protease stability score of 0.325.

In the case of “SDLHRDIQRLLEQVLRSRETGDEDHLEKYADPHARSVFDGVEFHGWEELLRVIRHIRIRRLRLTHIEVQGDKVELDLELDGEINGQRVRVHLEIHSEKINGRWIMTEVVIE”, the protease stability score is 1.21.

As to “SDLNQVFRESLEHHLHALETGDWRELYRLADPNVLVIVGDKEIHGMEEWSRILEEEMRRVKGMRIEINPTDIDFQGNKVRAHTRLHVEVDGRSVETDTEHESKKVNGRWILKRLTIR”, the protease stability score was 1.16.

With “SDLREEVKEFLKLLVEAFETGDEEALHELMDPNTRFRYGDKDLIGMKILERWWHELFRHLGVDRFRIELRVHHVTIINGQMHNDGTLIIRQGDKEERFKINLVIEKIDGRWIIHMVIFE”, the protease stability score was 0.893.

On to “SDMDEMISRFRREVEHSMQTGDERFDHEMADPHARFWINGVLFHGRHALEMWKEELGVDNFKIRHIHIRDEKIQGNKITLDVEYHLLVNGQQVDLRVILIYRKVNGKWTLEEERLV”, for which the protease stability score was found to be 0.851.

Sequence “SDQDHLTELAEHLFEYSLETGDEELMDKNFDPNMKLEVGEKHEHGRHVAETFSRRFDVVKSIEMKHVTTINGVAEIDGHIDGNFNGVDIRTDVRLVSLKIDGRWFIHSITFV” came in with a protease stability score of 0.319.

On to “SDRRELLERLAELFLHWWLTGDWKAISDNADPNVRLDIQQGDKHIHDIGRERTEEVLRKIFERFKNLKIEIKRFDMQGDKLHVDSRVTFDGVEFNMEIHNLVVDGRIREIYVHLH”, for which the protease stability score amounted to 1.54.

For “SDSDHDLEHLLELLMRAYETGNEEEIRRLVDPNARWDINGVELHGWKVMHKFLREMRPTRIRIIIDDSETIGDKMFVDGTIRLDVHIGDKLIHTERRSRLVHRKVDGKWTQTSVIID”, the protease stability score was 0.68.

For “SDSEESSKVALELFKESVETGDERVSQELADPNYRVHYGDKTLHGREAWIRVILEMRWRTVTFKHLDFQGDKVRIEGEILGEYNGVETNFSTTLNVLKINGQWFLHSVHIQ”, the protease stability score was 1.49.

Turning to “SDSEKVSREAWELMLRDHETGDEEAFQNNVDPHTRIHINGVDYHGWRDFVDLMRELRIEHVTLRDYRVIGNKMHIHGQVHGEIDGRRINMHVTIIARKINGRWILEHSIFV”, the protease stability score was found to be 1.97.

“SDTEHDARRVIEELSKALLTGDWRRIEELLDPNTRWVFNGQEFHGMEIVIKVLIHLRRHMTHVEFHDIHTIDGRVHSDTEFDVSLIINGKTERTRVHVEFIIRKVNGRWRIEEVRFE” registered a protease stability score of 2.25.

With “SDVDDMAHKMATLLIDLLETGDWREIRKFADPNVRIEIGDKEYHGMDYHLKHFRDLGWELHLRVERIDVVNGRILIHQEVELRFDGRHDHRKHTLIIEKIDGKWRFNEMIIS”, the protease stability score came out at 1.09.

“SDVDEKMETFLTLLFELIYTGDEEVIEKLFDPNVQLDVNGQIYHGMENVIEFVHQVKRHIRWKTVQIRHYRTQGEWAYSQVEVTGTVNGQSHRFEIHIDIWVINGKLKHIKKDIE” came in with a protease stability score of 2.01.

For “SDVEEMLHRIARLIVHNLFTGDWEDLVRMMDPHARYIVNGKESVGWRRVTEMLRRHHEELRIREIRIRHIEVYNGKAELHLEVNEEVNGREVSLDTRLHVLTINGVIRSIHIEVE”, the protease stability score came to 0.719.

The sequence “SDVLESTKSFLRFFVHAMITGNEEELSRNLDPNVRLLFNGVNYHGMEELVRLLIELGIKIHEWHTHDLKFQGEKLYYLGRRDGEVNGRRSEEEVEFIIFKFNGRWFLHEMRIH” registered a protease stability score of 0.627.

In the case of “SDWDEWTKRMLDILIEALETGDEEVLSRLIDPNMRLDINGQEFHGREVILRHLITEIQRADHVEFRIEDRDLIDGRVYMEVEKIIHINGVEFRHHVLIIIEKVDGRWYINSVHVR”, the protease stability score was found to be 2.46.

“SDWDKITKEMAELILTAEETGDFKTLWRLMDPNVKLNIGDKTHHGREEYLKWMHEHLKKVPNLTLKLRDVHVQGDKVHLRVEVEIGDKTIDSEIHLEIINGRIEHLRIIDL”: the protease stability score was 0.957.

Sequence “SDWEDLVRMAFHHFIHSMRTGDEDIIHQLLDPEVKINVGDKVIHGREQAFDYIHTLVNRADHIRFRLDHLDVQGDFIEIRTTVDLTYGDKHHRMEVTFFSRKVDGVWLIERVQIK” had a protease stability score of 1.27.

“SDWNEFLIEVAELLLRWLSTGDEESFHRYVDPRVRLEFNGKELHGREELARFLRHLRWILDHLEFTSREDQGEKFRVEGKSHGHLFFENHFERHDLKNDLNLILVNGRIKEISLRLE” registered a protease stability score of 1.42.

In the case of “SDYEKEVLDYAHTFLHAFLTGNEFILLKLLDPHVRIEIHFDGVDFLRHGRETFSKRAVDHIREWRVEIRLHDLHVVDGVVHLNTRLHVDYGDKHIHITQHITLFVINGRMKTVHIRHE”, the protease stability score worked out at 1.26.

In turn, “SDYERLFTIAVQLVIDVIQTGNFRELERLLDPNVRVDINGQEFVGREELVHWMHKVIRRADHLEITLRDVELQGDKLVLDMELVERYDGKEYRTRIRVFAHKINGQWYIRTFEVR” registered a protease stability score of 1.51.

“SDYTEVAHEIMDEWSKAILTGDEDTVEELLDPNVRVDINGQEIHGWETIFKKLRRFVDELGIDHVHVNTKRVKLIGNYIHVDGELRYHQGDFHIVRKVRLLIVKINGQWLIREINLK” displayed a protease stability score of 2.42.

Take “SEAEEFARRVIELWIRSILTGNPDMSEKLADPNYKVHFNGVNIVGMEEFYRHLEEWRIHIDDFRIRDVRVQGDKMINDTEERITIKYGDKEIHLDVRLEIIIRKIDGRWHMHSIILH”: the protease stability score is 2.2.

“SEAEERAEKFIELLTKALLTGDWRMISRMFDPHVRIIIGDKESHGMESLRDTLEHLRFDHINTRIEHVQVQGDWVEIHIRVHMRITVDGKEFHVETQMHYVLIKIDGKWVVREIEIR” had a protease stability score of 2.44.

Take “SEAEESARKLTHDILRLFLTGDEDLISRYFDPNVRHHINGQEEHGMEKMVKMLNHMRFRDMHLRDVRIHIIDGVATAHVEGELHGEVNGVRRDIKSELIIITEKFNGRWRLSSISFIIE”: the protease stability score was 0.256.
